Assay results from paper PMC8302766.

Experiments:
Conditions in all cases: domain or fragment, No outside chemistry for unlabelled SAXS/AUC samples. Limits are not given, convention is residues 186-320 of short isoform A1-A (isoform B insert 252-303 absent). The hexapeptide 259-264 (311-316 in P09651) is taken as deleted because the printed 7.5 mg/mL = 0.598 mM gives about 12.54 kDa, which fits the delta-hexa form plus an assumed N-terminal GS cleavage scar (about 12.53 kDa), modification not given
[1] = molecular target: low-complexity domain of hnRNPA1 (A1-LCD); experiment: AUC; two-step isodesmic model, KD2 (later steps), 50 mM NaCl
[2] = molecular target: low-complexity domain of hnRNPA1 (A1-LCD); experiment: AUC; two-step isodesmic model, KD1 (first step), 50 mM NaCl
[3] = molecular target: low-complexity domain of hnRNPA1 (A1-LCD); experiment: AUC; isodesmic model, 50 mM NaCl

Kd [1]: 2.2 mM
Kd [2]: 5.4 mM
Kd [3]: 3 mM
B1: low-complexity domain of hnRNPA1 (A1-LCD) (protein)
chain: MASASSSQRGRSGSGNFGGGRGGGFGGNDNFGRGGNFSGRGGFGGSRGGGGYGGSGDGYNGFGNDGSNFGGGGNYNNQSSNFGPMKGGNFGGRSSGPYGGGGQYFAKPRNQGGYGGSSSSSSYGSGRRF
